Laboratory results: paper PMC11440976, “Optimization and Evaluation of Al^18F Labeling Using a NOTA—or RESCA1-Conjugated AE105 Peptide Antagonist of uPAR” (Frontiers in Nuclear Medicine, 2021)
Each block holds one molecule with its values, some of them ahead of it. Where a SMILES comes first, the peptide text is derived from it. Where no end group is shown, it is not given here. [ ]: non-standard residue; d: D form. Cha = N[C@@H](CC1CCCCC1)C(=O)O

Columns and labels:
uPAR^1−283 [1] = target: T1, uPAR^1−283 (Homo sapiens, UniProt Q03405); test: SPR binding kinetics of peptides to immobilized uPAR (Biacore T200, single cycle); details: NB = no binding; for kon / koff: uPAR immobilized on CM5 chip, peptide in solution, global fit, ± standard error of fit; for kon: five serial 2-fold dilutions, 10 mM HEPES, 150 mM NaCl, 3 mM EDTA, 0.05% P-20, pH 7.4, 20°C, read-out: kon (association rate constant); for koff: read-out: koff (dissociation rate constant)
T1 construct: 10 μg/mL uPAR^1−283 in 10 mM sodium acetate pH 5.0 was covalently immobilized on a CM5 sensor chip; made in house
T1 sequence (Q03405 23-305): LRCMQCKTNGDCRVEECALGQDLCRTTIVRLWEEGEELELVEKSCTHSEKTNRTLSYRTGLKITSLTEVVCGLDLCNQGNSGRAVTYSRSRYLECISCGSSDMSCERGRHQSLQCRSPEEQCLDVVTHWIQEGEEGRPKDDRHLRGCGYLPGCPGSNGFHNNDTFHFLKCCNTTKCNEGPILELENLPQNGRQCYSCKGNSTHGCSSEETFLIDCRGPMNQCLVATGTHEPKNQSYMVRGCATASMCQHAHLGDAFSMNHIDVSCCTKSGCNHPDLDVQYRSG
Description: Binding kinetics of the peptides-uPAR interactions were determined with surface plasmon resonance (SPR) on a Biacore T200™ system (Cytiva), as outlined ([10]). In brief; 10 μg/mL uPAR^1−283 in 10 mM sodium acetate pH 5.0 was covalently immobilized on a CM5 sensor chip via amine coupling yielding a surface density of 905-1,333 RU (~26–39 fmol/mm^2) ([11]). Subsequently, we measured the binding kinetics of the various peptides to immobilized uPAR with single cycle protocols in which the peptides were injected as five serial 2-fold dilutions for 200 s with a short dissociation phase in between (100 s). The last analyte injection was followed by a 1,000 s long dissociation phase. In the end of each cycle, two consecutive injections of 0.1 M acetic acid in 0.5 M NaCl regenerated the sensor chip. All experiments were run with a flowrate of 50 μl/min in 10 mM HEPES, 150 mM NaCl, 3 mM EDTA, and 0.05% (v/v) surfactant P-20 at pH 7.4 at 20°C. The kinetic rate constants (kon and koff) as well as the KD (koff/kon) were determined by non-linear regression fitting of the curves to a simple bimolecular interaction model. We applied the BiacoreT200 Evaluation^TM 3.0 software for the global fitting. Additional binding kinetic curves is provided in the Supplementary Material.

uPAR·uPA interaction = uPAR·uPA interaction (Homo sapiens, UniProt Q03405); test: SPR competition of the uPAR·uPA interaction (uPAR in solution, immobilized pro-uPA^S356A); type: binding; details: 2 nM uPAR incubated with 3-fold dilution series of peptide (0.076 nM to 1.5 μM), pH 7.4, 20°C, four-parameter dose-response fit, n = 3, ± standard error
uPAR·uPA interaction, sequence (Q03405 23-305 limits assumed): as the sequence (Q03405 23-305) above
Description: The IC50-values of RESCA-AE105, NOTA-AE105, AE105 (Asp-Cha-Phe-(D)Ser-(D)Arg-Tyr-Leu-Trp-Ser) and AE105-mut (Asp-Cha-Glu-(D)Ser-(D)Arg-Tyr-Leu-Glu-Ser) on the uPAR·uPA interaction were determined with SPR on a Biacore 3000™ instrument or a Biacore T200™ system (Cytiva). The set-up is overall as described previously ([12]). In brief, we obtained a high surface density of pro-uPA^S356A by immobilizing >5,000 RU (~ 0.1 pmol pro-uPA/mm^2) on a CM5 sensor chip. […] For the analysis, we incubated 2 nM uPAR with a 3-fold dilution series of the peptides (ranging from 0.076 nM to 1.5 μM) and the νobs was measured for 300 s at 20°C with a flow rate of 50 μL/min. The running buffer contained 10 mM HEPES, 150 mM NaCl, 3 mM EDTA and 0.05 % (v/v) surfactant P20, pH 7.4. The sensor chip was regenerated with two consecutive injections of 0.1 M acetic acid, 0.5 M NaCl in the end of each cycle. In parallel, we measured a standard curve (2-fold dilution of uPAR covering 0.06–2 nM). This standard curve included one repeated concentration point at the end to validate the biological integrity of the sensor chip.

uPAR^1−283 [2] = target: T2, uPAR^1−283 (UniProt Q03405-1 23-305); test: SPR; uPAR^1−283 immobilised on a CM5 chip by amine coupling (905-1,333 RU); peptides injected in single cycle protocols, five serial 2-fold dilutions; 10 mM HEPES, 150 mM NaCl, 3 mM EDTA, 0.05% P-20, pH 7.4, 20°C; Biacore T200; simple bimolecular model, global fit; details: both partners purified
T2 sequence (Q03405 23-305): as above

uPAR^1−283 [3] = target: T2, uPAR^1−283; test: SPR; competition in solution: 2 nM uPAR incubated with 3-fold dilution series of the peptides (0.076 nM to 1.5 μM), free uPAR read by its association rate on pro-uPA^S356A immobilised at high density (>5,000 RU) on a CM5 chip; 10 mM HEPES, 150 mM NaCl, 3 mM EDTA, 0.05% P20, pH 7.4, 20°C; four-parameter dose-response fit, n = 3; details: both partners purified

Molecule: CC(C)C[C@H](NC(=O)[C@H](Cc1ccc(O)cc1)NC(=O)[C@@H](CCCNC(=N)N)NC(=O)[C@@H](CO)NC(=O)[C@H](CCC(=O)O)NC(=O)[C@H](CC1CCCCC1)NC(=O)[C@@H](N)CC(=O)O)C(=O)N[C@@H](CCC(=O)O)C(=O)N[C@@H](CO)C(=O)O [AE105mut] (H-D[Cha]E[dS][dR]YLES-OH)
Kd (uPAR^1−283 [1]; immobilized uPAR, pH 7.4, 20°C, simple bimolecular interaction model, read-out: KD (equilibrium dissociation constant, koff/kon)): > 200 nM | IC50 (uPAR·uPA interaction): > 1000 nM

Molecule: CC(C)C[C@H](NC(=O)[C@H](Cc1ccc(O)cc1)NC(=O)[C@@H](CCCNC(=N)N)NC(=O)[C@@H](CO)NC(=O)[C@H](Cc1ccccc1)NC(=O)[C@H](CC1CCCCC1)NC(=O)[C@@H](N)CC(=O)O)C(=O)N[C@@H](Cc1c[nH]c2ccccc12)C(=O)N[C@@H](CO)C(=O)O [AE105]
kon (uPAR^1−283 [1]): 1.01e+06 ± 3000 M⁻¹ s⁻¹ | koff (uPAR^1−283 [1]; pH 7.4, 20°C): 0.00413 ± 1e-05 s⁻¹

B1: NOTA-AE105 (peptide)
chain: DXFSRYLWS
modifications: NOTA chelator conjugated at the N-terminal; Cha (cyclohexylalanine) at position 2; (D)Ser at position 4; (D)Arg at position 5
koff (uPAR^1−283 [2]): 0.0125 s⁻¹ | kon (uPAR^1−283 [2]): 224000 M⁻¹ s⁻¹

B3: AE105 (peptide)
chain: DXFSRYLWS
modifications: Cha (cyclohexylalanine) at position 2; (D)Ser at position 4; (D)Arg at position 5
Kd (uPAR^1−283 [2]): 4.1 nM | IC50 (uPAR^1−283 [3]): 8.86 nM

Molecule: D[Cha]E[dS][dR]YLES [AE105-mut]
IC50 (uPAR^1−283 [3]): > 1000 nM

Further lines, results first:

kon (uPAR^1−283 [1]): 292000 ± 1000 M⁻¹ s⁻¹ | koff (uPAR^1−283 [1]; pH 7.4, 20°C): 0.014 ± 2e-05 s⁻¹
Molecule: CC(C)C[C@H](NC(=O)[C@H](Cc1ccc(O)cc1)NC(=O)[C@@H](CCCNC(=N)N)NC(=O)[C@@H](CO)NC(=O)[C@H](Cc1ccccc1)NC(=O)[C@H](CC1CCCCC1)NC(=O)[C@H](CC(=O)O)NC(=O)c1ccc(CN(CC(=O)O)[C@@H]2CCCC[C@H]2N(CC(=O)O)CC(=O)O)cc1)C(=O)N[C@@H](Cc1c[nH]c2ccccc12)C(=O)N[C@@H](CO)C(=O)O [RESCA1-AE105]

Kd (uPAR^1−283 [2]): 48 nM | IC50 (uPAR^1−283 [3]): 76.7 nM
B2: RESCA1-AE105 (peptide)
chain: DXFSRYLWS
modifications: RESCA1 chelator conjugated at the N-terminal; Cha (cyclohexylalanine) at position 2; (D)Ser at position 4; (D)Arg at position 5
